Measurements: paper PMC6016246, “Cytokinin Signaling in Mycobacterium tuberculosis” (mBio, 2018)

Tests used:
[1] = biological target: the molecule itself; test: crystal structure; DNA-free Rv0078, C2 space group crystals, sitting-drop vapor diffusion at 20°C, 0.1 M sodium cacodylate pH 6.4, 1.3 M lithium sulfate; 1.85 Å
Rv0078 [2] = biological target: T1, Rv0078 (Mycobacterium tuberculosis, UniProt O53623 1-201); test: ITC; […], room temperature 30 min; […], buffer not stated; settings: protein: recombinant; tags: C-terminal His6; chain copies: 4
T1 sequence: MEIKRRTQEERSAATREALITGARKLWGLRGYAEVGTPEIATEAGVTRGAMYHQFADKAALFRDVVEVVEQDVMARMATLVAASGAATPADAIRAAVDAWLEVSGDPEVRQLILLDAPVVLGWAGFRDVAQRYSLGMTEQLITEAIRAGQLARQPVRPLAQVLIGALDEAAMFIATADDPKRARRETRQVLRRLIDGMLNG

Rv0078 [3] = biological target: T1, Rv0078; test: crystal structure; […], room temperature 30 min; […], buffer not stated; settings: protein: recombinant; tags: C-terminal His6; chain copies: 4; blunt

B1: Rv0078-His6 (TetR-like transcriptional repressor Rv0078) (natural protein)
chain: MEIKRRTQEERSAATREALITGARKLWGLRGYAEVGTPEIATEAGVTRGAMYHQFADKAALFRDVVEVVEQDVMARMATLVAASGAATPADAIRAAVDAWLEVSGDPEVRQLILLDAPVVLGWAGFRDVAQRYSLGMTEQLITEAIRAGQLARQPVRPLAQVLIGALDEAAMFIATADDPKRARRETRQVLRRLIDGMLNG
notes: also called LoaR; EthR2; not shown: His6, C-terminal, kept
With B1 the “stoichiometry N” value [1] was 2.

B2: +13/-8 DNA probe (ITC) (dsDNA)
DNA 1: TTACAAGCAGACTGCCGGTAA
DNA 2: TTACCGGCAGTCTGCTTGTAA
Binder B2 has a Kd (Rv0078 [2]) of 357 nM.

B3: 23-mer operator duplex (dsDNA)
DNA 1: TTTACAAGCAGACTGCCGGTAAC
DNA 2: GTTACCGGCAGTCTGCTTGTAAA
B3: binds (Rv0078 [3]).
